Test [1] addresses c-Met on human cancer cells (human) (UniProt P08581).
The target is the same in test [2]. The source holds these as a separate data set.

Turning to antibody 5D5 (ATCC Cat. # HB11895), the relative cell viability (%) of MKN45 cells, 72 h in test [1] worked out at 53%. The same substance showed an Akt phosphorylation (%) in Caki-1 cells, 5 ug/ml, 30 min in test [2] of 100%.

The values above are taken from US9717715B2.
